# In patent publication US20210107969A1 (Johns Hopkins, published 2021):
# Legend:
# human TGF-β1 = molecular target: T1, human TGF-β1 (human, UniProt P01137 279-390, biotinylated in the FIG. 8C ELISA; unlabelled rhTGF-β1 in FIG. 9B/9C); assay: ELISA, protein coated, biotinylated huTGFb1 detected by avidin-HRP
# T1 construct: also called biotinylated huTGFb1; rhTGF-β1
# biotinylated huPD-L1 = molecular target: T2, biotinylated huPD-L1 (human, UniProt Q9NZQ7 19-238, limits assumed, biotinylated (site not stated)); assay: ELISA, antibody coated, biotinylated huPD-L1 detected by avidin-HRP
# T2 construct: it is treated here as the same reagent; also called biotinylated PD-L1
# T2 sequence (Q9NZQ7 19-238 limits assumed): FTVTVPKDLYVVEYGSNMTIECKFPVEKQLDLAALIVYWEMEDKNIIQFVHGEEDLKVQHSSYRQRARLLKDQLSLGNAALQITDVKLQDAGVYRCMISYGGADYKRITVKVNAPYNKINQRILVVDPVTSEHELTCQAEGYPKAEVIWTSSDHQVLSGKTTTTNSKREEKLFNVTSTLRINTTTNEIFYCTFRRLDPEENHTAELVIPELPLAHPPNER
# T1 sequence (P01137 279-390 limits assumed): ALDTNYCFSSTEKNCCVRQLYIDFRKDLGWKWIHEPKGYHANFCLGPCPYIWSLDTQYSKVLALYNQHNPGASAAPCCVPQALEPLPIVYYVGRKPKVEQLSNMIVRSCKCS
Binder,binding result (human TGF-β1),binding result (biotinylated huPD-L1)
"anti-VEGF (bevacizumab) (antibody, human IgG1, kappa, V domains shown) VH: EVQLVESGGGLVQPGGSLRLSCAASGYTFTNYGMNWVRQAPGKGLEWVGWINTYTGEPTYAADFKRRFTFSLDTSKSTAYLQMNSLRAEDTAVYYCAKYPHYYGSSHWYFDVWGQGTLVTVSS VL: DIQMTQSPSSLSASVGDRVTITCSASQDISNYLNWYQQKPGKAPKVLIYFTSSLHSGVPSRFSGSGSGTDFTLTISSLQPEDFATYYCQQYSTVPWTFGQGTKVEIKR",no binding,–
"anti-PD1 (nivolumab) (antibody, human IgG4 S228P, kappa, V domains shown, Negative control in the PD-L1 ELISA) VH: QVQLVESGGGVVQPGRSLRLDCKASGITFSNSGMHWVRQAPGKGLEWVAVIWYDGSKRYYADSVKGRFTISRDNSKNTLFLQMNSLRAEDTAVYYCATNDDYWGQGTLVTVSS VL: EIVLTQSPATLSLSPGERATLSCRASQSVSSYLAWYQQKPGQAPRLLIYDASNRATGIPARFSGSGSGTDFTLTISSLEPEDFAVYYCQQSSNWPRTFGQGTKVEIKR",–,no binding
